PMC5509376 (PLoS Pathogens, 2017)

Molecular target: T1, VPS10P domain of sortilin fused with GST (mouse, UniProt Q6PHU5 76-750)
T1 construct: also called GST-VPS10P; GST-tagged VPS10P domain of sortilin
T1 sequence (looked up): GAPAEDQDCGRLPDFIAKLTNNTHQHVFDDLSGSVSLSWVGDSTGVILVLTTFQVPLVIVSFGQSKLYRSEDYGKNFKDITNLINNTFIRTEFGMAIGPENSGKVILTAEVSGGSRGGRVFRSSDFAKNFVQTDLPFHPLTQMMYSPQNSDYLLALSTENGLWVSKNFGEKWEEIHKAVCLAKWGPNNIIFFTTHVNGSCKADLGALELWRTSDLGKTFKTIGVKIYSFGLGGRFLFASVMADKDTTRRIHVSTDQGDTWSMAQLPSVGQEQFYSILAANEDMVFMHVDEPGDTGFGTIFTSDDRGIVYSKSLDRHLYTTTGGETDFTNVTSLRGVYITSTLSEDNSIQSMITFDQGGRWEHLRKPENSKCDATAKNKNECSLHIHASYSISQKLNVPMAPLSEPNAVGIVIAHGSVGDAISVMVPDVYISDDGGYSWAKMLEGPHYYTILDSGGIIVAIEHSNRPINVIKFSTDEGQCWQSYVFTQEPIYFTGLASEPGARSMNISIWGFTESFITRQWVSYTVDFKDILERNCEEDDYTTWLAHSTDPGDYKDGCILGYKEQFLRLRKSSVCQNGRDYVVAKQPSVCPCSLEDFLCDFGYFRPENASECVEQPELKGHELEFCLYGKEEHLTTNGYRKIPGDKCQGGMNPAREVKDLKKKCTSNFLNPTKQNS
Assay: pull-down
Conditions: both partners purified

B1: His-tagged full-length recombinant PrP (natural protein)
chain: not shown
- binding result: binds
